# Reference: patent US20130052729A1, “METHOD FOR PREPARING INDUCED PARAXIAL MESODERM PROGENITOR (IPAM) CELLS AND THEIR USE” (priority 2011, published 2013)
# “Also recorded” adds a separate entry of the source.
# B1: R-spondin3: secreted protein of the R-spondin family that activates Wnt signalling pathway; recombinant protein obtained commercially (R&D) (protein, UniProt Q9BXY4 22-272, looked up)
# R-spondin-3: QNASRGRRQRRMHPNVSQGCQGGCATCSDYNGCLSCKPRLFFALERIGMKQIGVCLSSCPSGYYGTRYPDINKCTKCKADCDTCFNKNFCTKCKSGFYLHLGKCLDNCPEGLEANNHTMECVSIVHCEVSEWNPWSPCTKKGKTCGFKRGTETRVREIIQHPSAKGNLCPPTNETRKCTVQRKKCQKGERGKKGRERKRKKPNKGESKEAIPDSKSLESSKEIPEQRENKQQQKKRKVQDKQKSVSVSTVH
# B2: R-spondin2: secreted protein of the R-spondin family that activates Wnt signalling pathway; recombinant protein obtained commercially (R&D) (protein, UniProt Q6UXX9 22-243, looked up)
# R-spondin-2: QGNRWRRSKRASYVSNPICKGCLSCSKDNGCSRCQQKLFFFLRREGMRQYGECLHSCPSGYYGHRAPDMNRCARCRIENCDSCFSKDFCTKCKVGFYLHRGRCFDECPDGFAPLEETMECVEGCEVGHWSEWGTCSRNNRTCGFKWGLETRTRQIVKKPVKDTILCPTIAESRRCKMTMRHCPGGKRTPKAKEKRNKKKKRKLIERAQEQHSVFLATDRANQ
# B3: Dkk1: secreted extracellular Wnt antagonist, inhibitor of canonical Wnt signaling (protein, UniProt O94907 32-266, looked up)
# Dickkopf-related protein 1: TLNSVLNSNAIKNLPPPLGGAAGHPGSAVSAAPGILYPGGNKYQTIDNYQPYPCAEDEECGTDEYCASPTRGGDAGVQICLACRKRRKRCMRHAMCCPGNYCKNGICVSSDQNHFRGEIEETITESFGNDHSTLDGYSRRTTLSSKMYHTKGQEGSVCLRSSDCASGLCCARHFWSKICKPVLKEGQVCTKHRRKGSHGLEIFQRCYCGEGLSCRIQKDHHQASNSSRLHTCQRH
# Tests used:
# Msgn1RepV mES cells = experiment: iPAM induction in Msgn1RepV reporter mES cells (YFP+ cells, flow cytometry); assay type: cell-based, mouse; details: for effect on number of YFP+ cells: recombinant protein, 15% FBS, 4 days of differentiation
# Description: ES cells were trypsinized and plated at various densities in gelatin coated, feeder-free, 24 well plates directly in serum-based (15% FBS) or serum-replacement (15% KSR, Invitrogen) conditions supplemented with factors, and DMSO (Sigma). Recombinant proteins were obtained commercially (R&D) and stock solutions were prepared according to manufacturer's recommendation. The GSK-3β inhibitor CHIR99021 was purchased from Stemgent and prepared according to the manufacturer's recommendations. Fluorescent reporter analysis and image acquisition were done on a Zeiss Axiovert system.
# Cell cultures were dissociated by trypsinization, analyzed by flow cytometry on a FACScalibur (BD Biosciences) according to YFP expression. Data were further analyzed with MoFlo software (Beckman Coulter) and FlowJo software.
# In order to follow the differentiation of ES cells toward the first stage of paraxial mesoderm differentiation (ie presomitic fate), which represents the first step of skeletal muscle differentiation after acquisition of a mesodermal identity, we generated a transgenic mouse ES cell line harboring a fluorescent reporter specifically expressed in paraxial mesoderm progenitors. We used the promoter from the mouse Msgn1, a gene specific for the presomitic mesoderm, to drive the expression of Venus (a modified YFP).
# In order to optimize the differentiation conditions for paraxial mesoderm progenitors, we developed a manual screening assay, testing candidate growth factors and drugs interfering with various signaling pathways on ES cells. The Msgn1RepV reporter cells were plated at a defined density in 24-well plates coated with gelatin (0.1%). Two basal culture media were selected: a DMEM based medium containing 15% fetal bovine serum (FBS, high serum) and a defined serum-free medium containing 15% KSR (Invitrogen/Gibco). These basal media were supplemented with candidate factors on day 0 of differentiation. Control and experimental conditions were cultured in parallel. Cells were left to differentiate for three to four days with medium changed on day 2 or 3. Cell cultures were analyzed on day 3 and 4 of differentiation visually and by flow cytometry for YFP+ population quantification.
# mouse ES cells = experiment: Sequential differentiation of iPAM cells into paraxial mesoderm derivatives (staining, qRT-PCR); assay type: cell-based; details: DMSO 0.5%
# Description: From day 0 to day 4, mouse ES cells were differentiated in presence of Rspo3, followed by 15% FBS medium until day 18. Cell types were identified by tissue-specific antibody staining, namely Muscle (Desmin, green), Endothelium (PECAM1/CD31, green) and Cartilage (Alcian Blue).
# ES cells were cultured for 4 days in FBS15%, DMSO 0.5% and 10 ng/ml Rspo3 and then switched to FBS 15% or FBS 1% or FBS1% plus […] (Shh) and Retinoic acid (F1ShhRA) or plus Shh, Noggin and LiCl (F1SNLi). Cells were harvested the next day and analyzed by qRT-PCR for the dermal marker Dermol (A) and the muscle marker Myf5 (B). Graphs show fold enrichment.
# Total RNA was extracted from ES cell cultures using a Trizol reagent (Invitrogen) or with the Rnaeasy plus mini-kit (Qiagen). RT-PCR was performed on 5 ng total RNA using QuantiFast SYBR Green RT-PCR Kit (Qiagen), appropriate primers and run on a LightCycler 480II (Roche). GAPDH was used as the internal control. […]
# For example, between day0 to day4, ES cells were exposed to optimized differentiating conditions (ie. R-spondin3 10 ng/mL, DMSO 0.5%, in 15% FBS basal medium). […] At day 18, cell cultures were fixed and analyzed by tissue specific histochemical staining or immunofluorescence (FIG. 8). […] Cells were harvested the next day and analyzed by qRT-PCR for the dermal marker Dermo 1 and the muscle marker Myf5 (FIG. 9).
# canonical Wnt signaling = experiment: BAT-luc luciferase reporter for canonical Wnt signaling in transfected ES cells; assay type: cell-based, mouse; details: Rspo3 10 ng/mL, low serum (1% FBS) medium
# HUES1 cells = experiment: qRT-PCR of paraxial mesoderm progenitor markers in differentiating human ES cells; assay type: cell-based; details: 3 to 10 days of culture in 15% FBS containing medium
# Description: Comparison of the expression of paraxial mesoderm progenitor markers Brachyury (A), PDGFRa (B), Tbx6 (C), Msgn1 (D) measured by Q RT-PCR in HUES1 undifferentiated or cultured in 15% FBS containing medium with or without Rspo3 for up to 10 days. Relative expression to undifferentiated HUES1 cells is shown (fold induction)
# Total RNA was extracted from ES cell cultures using a Trizol reagent (Invitrogen) or with the Rnaeasy plus mini-kit (Qiagen). RT-PCR was performed on 5 ng total RNA using QuantiFast SYBR Green RT-PCR Kit (Qiagen), appropriate primers and run on a LightCycler 480II (Roche). GAPDH was used as the internal control.
# Next, to confirm that R-spondin also induces iPAM cells from human ES cells differentiation, HUES1 cells were plated has single cells and differentiated in 15% FBS containing medium with or without Rspo3. qRT-PCR time course analysis for paraxial mesoderm progenitor markers expression was performed (FIG. 10).
# Wnt signaling = details: cited from earlier work
molecule,measurement,setting,value
"Cc1c[nH]c(-c2cnc(NCCNc3ccc(C#N)cn3)nc2-c2ccc(Cl)cc2Cl)n1 [CHIR99021, reference compound]",efficiency in inducing YFP+ cells compared with Rspo-3,"Msgn1RepV mES cells; after 4 days, 15% FBS medium",as efficient as Rspo-3
"C[S+](C)[O-] [DMSO, Dimethyl sulfoxide]",effect on YFP+ cells,"Msgn1RepV mES cells; 0.5% DMSO in FBS-containing medium, 4 days in culture",positive effect on iPAM induction; also recorded: increase of YFP+ cells
B1,activation of dermal marker Dermo 1 and muscle marker Myf5 (qRT-PCR),"mouse ES cells; 4 days Rspo3 10 ng/mL, FBS15%, then switched medium, harvested next day",Significant activation of these markers
same,tissue-specific staining of cultures at day 18,"mouse ES cells; day0 to day4 R-spondin3 10 ng/mL, 15% FBS, then differentiation media until day 18","positive for Cartilage (Alcian blue positive nodules), Muscles (Desmin positive fibers) and Endothelium (CD31/PECAM1)"
same,"luciferase (BAT-luc) activation, canonical Wnt response",canonical Wnt signaling,strongly activated
same,"luciferase (BAT-luc) activation, canonical Wnt response",canonical Wnt signaling; listed as Rspo3,strongly activates the canonical Wnt response
same,"expression of paraxial mesoderm progenitor markers Brachyury, PDGFRa, Tbx6 and Msgn1",HUES1 cells,induction of the paraxial mesoderm progenitor markers; also recorded: Strong activation of Msgn1 and Tbx6
same,potency to activate Wnt signaling versus Rspo1 and 4,Wnt signaling,more potent
same,induction of YFP+ cells,"Msgn1RepV mES cells; 10 ng/mL, both in FBS based medium and KSR based medium",up to 70%
same,YFP+ population of the total population,"Msgn1RepV mES cells; 10 ng/mL, day 4 of differentiation, 15% FBS medium, flow cytometry",more than 70%
same,effect on number of YFP+ cells,Msgn1RepV mES cells,significantly increase the number of YFP+ cells
B2,potency to activate Wnt signaling versus Rspo1 and 4,Wnt signaling,more potent
same,effect on number of YFP+ cells,Msgn1RepV mES cells,significantly increase the number of YFP+ cells
B3,effect of supplementation of the medium on YFP+ induction,"Msgn1RepV mES cells; 15% FBS medium, 4 days",sharp decrease of YFP+ induction
